Assay results: publication PMC548335 (Nucleic Acids Research, 2005)

T1: GST-Pta1 (yeast, UniProt Q01329 1-785)
T1 sequence: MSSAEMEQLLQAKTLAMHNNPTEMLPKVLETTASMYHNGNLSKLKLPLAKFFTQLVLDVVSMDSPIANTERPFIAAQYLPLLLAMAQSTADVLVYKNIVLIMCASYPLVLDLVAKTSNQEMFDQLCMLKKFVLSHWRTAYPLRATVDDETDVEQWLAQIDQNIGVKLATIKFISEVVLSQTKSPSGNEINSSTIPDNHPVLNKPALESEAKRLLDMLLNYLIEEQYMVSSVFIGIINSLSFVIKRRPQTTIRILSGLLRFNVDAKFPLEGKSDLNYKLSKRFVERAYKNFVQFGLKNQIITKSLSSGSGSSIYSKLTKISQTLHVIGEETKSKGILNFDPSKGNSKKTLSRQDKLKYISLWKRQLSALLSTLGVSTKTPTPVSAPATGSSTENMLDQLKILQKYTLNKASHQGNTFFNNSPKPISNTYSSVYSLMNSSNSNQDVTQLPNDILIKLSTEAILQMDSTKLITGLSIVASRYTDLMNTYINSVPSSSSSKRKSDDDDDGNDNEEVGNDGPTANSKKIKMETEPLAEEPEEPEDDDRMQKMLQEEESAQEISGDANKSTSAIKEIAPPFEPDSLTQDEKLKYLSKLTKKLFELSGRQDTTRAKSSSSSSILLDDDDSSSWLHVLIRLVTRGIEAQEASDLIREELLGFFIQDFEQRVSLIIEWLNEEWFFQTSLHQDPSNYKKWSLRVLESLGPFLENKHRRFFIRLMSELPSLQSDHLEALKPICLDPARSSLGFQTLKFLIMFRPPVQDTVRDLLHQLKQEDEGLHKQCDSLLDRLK

T2: GST-hTFIIB (human, UniProt Q00403 1-316)
T2 sequence: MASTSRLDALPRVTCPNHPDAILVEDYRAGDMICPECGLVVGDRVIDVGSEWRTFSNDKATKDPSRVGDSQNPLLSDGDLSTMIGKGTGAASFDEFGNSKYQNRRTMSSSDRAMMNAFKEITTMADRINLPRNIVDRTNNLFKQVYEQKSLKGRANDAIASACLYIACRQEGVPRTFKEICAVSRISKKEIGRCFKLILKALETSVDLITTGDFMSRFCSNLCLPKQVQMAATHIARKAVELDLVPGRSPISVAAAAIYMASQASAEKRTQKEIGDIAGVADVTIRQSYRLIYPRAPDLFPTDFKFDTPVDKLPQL

B1: Hat-hSsu72 (natural protein)
chain: MPSSPLRVAVVCSSNQNRSMEAHNILSKRGFSVRSFGTGTHVKLPGPAPDKPNVYDFKTTYDQMYNDLLRKDKELYTQNGILHMLDRNKRIKPRPERFQNCKDLFDLILTCEERVYDQVVEDLNSREQETCQPVHVVNVDIQDNHEEATLGAFLICELCQCIQHTEDMENEIDELLQEFEEKSGRTFLHTVCFY
B2: Hat-hSsu72Δ1-12 (domain or fragment)
chain: SSNQNRSMEAHNILSKRGFSVRSFGTGTHVKLPGPAPDKPNVYDFKTTYDQMYNDLLRKDKELYTQNGILHMLDRNKRIKPRPERFQNCKDLFDLILTCEERVYDQVVEDLNSREQETCQPVHVVNVDIQDNHEEATLGAFLICELCQCIQHTEDMENEIDELLQEFEEKSGRTFLHTVCFY

What was measured:
GST-Pta1 = biological target: T1, GST-Pta1; assay: pull-down
GST-hTFIIB = biological target: T2, GST-hTFIIB; assay: pull-down

Binder | binding result (GST-Pta1) | binding result (GST-hTFIIB)
B1 | binds | binds
B2 | binds | binds
